The values that follow come from article PMC10992996, “Human CRB1 and CRB2 form homo- and heteromeric protein complexes in the retina” (Life Science Alliance, 2024).

The assay concerns the target T1, CRB1-FLAG p.G1103R (human, UniProt P82279 26-1406, p.G1103R).
T1 construct: Crumbs homolog 1, canonical form, human, cDNA NM_202153 as printed, with a patient missense mutation in the last laminin G domain; Made by site-directed mutagenesis of m1; also called CRB1 p.G1103R; CRB1-FLAG MT; source: HEK293T, transfected, in lysate; not shown: Strep-Strep-FLAG, N-terminal, kept
T1 sequence (looked up): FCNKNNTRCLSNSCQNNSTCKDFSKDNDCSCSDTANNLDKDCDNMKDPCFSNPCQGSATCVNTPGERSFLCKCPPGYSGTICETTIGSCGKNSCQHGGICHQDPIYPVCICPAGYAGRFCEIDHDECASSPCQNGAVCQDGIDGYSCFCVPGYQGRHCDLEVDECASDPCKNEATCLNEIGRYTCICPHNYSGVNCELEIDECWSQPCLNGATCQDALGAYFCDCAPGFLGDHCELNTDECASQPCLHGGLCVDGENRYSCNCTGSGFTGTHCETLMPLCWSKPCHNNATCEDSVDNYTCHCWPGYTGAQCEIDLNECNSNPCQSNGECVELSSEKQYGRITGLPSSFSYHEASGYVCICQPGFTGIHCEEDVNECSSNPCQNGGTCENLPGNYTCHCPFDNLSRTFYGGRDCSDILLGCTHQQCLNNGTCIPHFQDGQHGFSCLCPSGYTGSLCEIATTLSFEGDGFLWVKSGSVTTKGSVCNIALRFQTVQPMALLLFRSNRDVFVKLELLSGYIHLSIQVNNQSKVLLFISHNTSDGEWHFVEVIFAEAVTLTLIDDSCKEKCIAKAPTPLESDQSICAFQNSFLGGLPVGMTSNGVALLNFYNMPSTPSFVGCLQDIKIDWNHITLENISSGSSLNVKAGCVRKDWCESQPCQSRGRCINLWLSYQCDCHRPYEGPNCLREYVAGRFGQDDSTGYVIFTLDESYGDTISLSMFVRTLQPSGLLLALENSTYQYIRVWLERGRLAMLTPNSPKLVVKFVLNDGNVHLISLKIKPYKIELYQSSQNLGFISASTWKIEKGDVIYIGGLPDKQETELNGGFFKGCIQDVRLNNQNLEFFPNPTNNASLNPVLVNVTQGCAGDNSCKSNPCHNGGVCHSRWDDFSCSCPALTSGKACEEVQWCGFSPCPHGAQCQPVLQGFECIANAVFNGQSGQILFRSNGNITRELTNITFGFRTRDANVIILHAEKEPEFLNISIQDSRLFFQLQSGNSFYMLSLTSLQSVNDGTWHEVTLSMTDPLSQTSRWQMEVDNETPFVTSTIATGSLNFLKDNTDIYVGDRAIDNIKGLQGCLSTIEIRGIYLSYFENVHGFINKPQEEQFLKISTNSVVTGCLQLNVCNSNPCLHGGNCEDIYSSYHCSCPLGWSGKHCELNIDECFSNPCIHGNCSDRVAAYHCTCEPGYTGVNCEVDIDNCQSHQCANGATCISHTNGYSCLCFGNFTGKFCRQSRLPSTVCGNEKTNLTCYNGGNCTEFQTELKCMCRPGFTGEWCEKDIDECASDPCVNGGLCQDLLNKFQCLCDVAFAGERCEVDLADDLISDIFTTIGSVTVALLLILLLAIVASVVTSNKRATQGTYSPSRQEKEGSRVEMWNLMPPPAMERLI
As to the kind of experiment: co-IP; HEK293T cells co-transfected pairwise with a FLAG and an HA construct, 48 h; lysis in TBS (30 mM Tris-HCl pH 7.4, 150 mM NaCl) with 0.5% Nonidet P40; FLAG-IP on ANTI-FLAG M2 Affinity Gel 60-90 min at 4°C, elution with FLAG peptide; Western blot with HA and FLAG antibodies; for mutants HA/FLAG signal in eluates relative to WT, three biological replicates. The settings on record: partners not purified.

B1: Human canonical CRB2 (Crumbs homolog 2) (natural protein)
chain: not shown
notes: Crumbs homolog 2, human, cDNA NM_173689; Stood as bait (FLAG copy) and as prey (HA copy) in the pairwise co-IP matrix; each copy carries only one of the two tags; The FLAG copy was the bait of the mass spectrometry pull-downs; also called CRB2-FLAG; CRB2-HA; source: HEK293T, transfected, in lysate (co-IP); HEK293T, transfected, FLAG-IP on beads, washed and purified with 0.01% SDS (retina …)
For B1, the “percent reduction of the interaction relative to CRB1 WT” value was approximately 30%.
